Article PMC11620640 (2024)
Read-outs that look alike come from different tables or passages of the source.

Experiments:
[1] = biological target: T1, SARS-CoV-2 prototype (PT) spike receptor binding domain (RBD) (SARS-CoV-2, UniProt P0DTC2 319-541); experiment: SPR
[2] = biological target: T1, SARS-CoV-2 prototype (PT) spike …; experiment: SPR; remark: listed apart in the source

B1: raccoon dog ACE2 (rdACE2), peptidase domain (PD), wild type (receptor)
chain: QSTEDLVNTFLEKFNYEAEELSYQSSLASWNYNTNITDENLQKMNNAGAKWSAFYEEQSKLAKTYPLEEIQDSTVKRQLRALQHSGSSVLSADKNQRLNTILNSMSTIYSTGKACNPSNPQECLLLEPGLDDIMENSKDYNERLWAWEGWRSEVGKQLRPLYEEYVALKNEMARANNYEDYGDYWRGDYEEEWENGYNYSRNQLIDDVEHTFTQIMPLYQHLHAYVRTKLMDTYPSYISPTGCLPAHLLGDMWGRFWTNLYPLTVPFGQKPNIDVTNAMVNQSWDARKIFKEAEKFFVSVGLPNMTQGFWENSMLTEPSDSWKVVCHPTAWDLGRGDFRIKMCTKVTMDDFLTAHHEMGHIQYDMAYAAQPFLLRNGANEGFHEAVGEIMSLSAATPNHLKNIGLLPPSFFEDSETEINFLLKQALTIVGTLPFTYMLEKWRWMVFKGEIPKDQWMKTWWEMKRNIVGVVEPVPHDETYCDPASLFHVANDYSFIRYYTRTIYQFQFQEALCQIAKHEGPLHKCDISNSSEAGQKLLEMLKLGKSKPWTYALEIVVGAKNMDVRPLLNYFEPLFTWLKEQNRNSFVGWNTDWSPYADQS
Kd [1]: 87.4 nM | Kd [2]: 70.7 nM
